Reference: patent publication US7592309B2, “Method of using a peptide having analgesic and antitumor activity from scorpion” (priority 2001, dated 2009)

Experiments:
Type in all cases: in vivo
[1] = tested on: S180 sarcoma solid tumor; test: mouse S180 sarcoma solid tumor model, inhibitory rate of tumor weight; settings: S180, dose 60.0 mg/kg weight (positive control)
Procedure: (§1) In mouse experimental tumor model, such as ehrlich ascites carcinoma and S180 entity tumor, the peptide derived from the scorpion or partial fragment, derivative or analogue thereof having analgesic and antitumor activity obtained in example 1,2 and 6 was injected subcutaneously in a dose of 0.1 mg/kg weight to 16.0 mg/kg weight for continuous seven days. […] For example, the peptide of the SDS-PAGE single band obtained in Example 1 was administrated at the dose of 0.639 mg/kg weight. […] The peptide derived from the scorpion or partial fragment, derivative or analogue thereof having analgesic and antitumor activity obtained in example 1,2 and 6 was administrated by stomach infusion in a dose of 0.1 mg/kg weight to 16.0 mg/kg weight for continuous ten days.

[2] = tested on: ehrlich ascites carcinoma; test: mouse ehrlich ascites carcinoma model, rate of life prolonging
Procedure: as §1

[3] = tested on: writhing response of mouse (acetic acid writhing model); settings: administered by stomach infusion
Procedure: (§2) The above samples were administrated by stomach infusion in a dose of 0.1 mg/kg weight to 16.0 mg/kg weight. […] In the mouse heat plate model, the above samples were administrated by intravenous injection in a dose of 0.1 mg/kg weight to 16.0 mg/kg weight. […] For example, the peptide of SDS-PAGE single band obtained in example 1 and 2 were injected intravenously at 0.6 mg/kg weight.

[4] = tested on: mouse heat plate model; test: mouse heat plate model (pain threshold); settings: 0.6 mg/kg weight intravenously
Procedure: as §2

**Q.** With `O=P1(N(CCCl)CCCl)NCCCO1` (stereo not drawn) [cyclophosphamide, reference compound] as the molecule, how does the “inhibitory rate of tumor weight” value [1] read?
**A.** The value was 50.5%.

**Q.** And the “rate of life prolonging” value ([2]; dose 60.0 mg/kg weight, subcutaneous injection (positive control))?
**A.** Its value is 15.6%.

B1: Example 2: peptide having analgesic and antitumor activity purified from homogenized scorpion by the processes of Example 1; SEQ ID NO: 1 (protein)
chain: VRDGYIADDKNCAYFCGRNAYCDDECKKNGAESGYCQWAGVYGNACWCYKLPDKVPIRVPGKCNGG
modifications: Scorpion
**Q.** B1 was tested. Which “ED50 (median effective dose)” value [3] did it give?
**A.** Its value is 2.86 mg/kg weight.

**Q.** What about the “rate of life prolonging” value ([2]; stomach infusion, dose 0.213 mg/kg weight, ten days) of the same molecule?
**A.** The value was 16.8%.

**Q.** What about the “rate of life prolonging” value ([2]; stomach infusion, dose 0.639 mg/kg weight, ten days) of the same molecule?
**A.** The value was 31.5%.

**Q.** What about the “pain threshold raised in a rate of” value ([4]; at 5 min) of the same molecule?
**A.** Its value is 16.5%.

**Q.** And the “pain threshold raised in a rate of” value ([4]; at 15 min)?
**A.** The value was 145.7%.

**Q.** What about the “pain threshold raised in a rate of” value ([4]; at 25 min) of the same molecule?
**A.** The value was 219.1%.

**Q.** What about the “pain threshold raised in a rate of” value ([4]; at 35 min) of the same molecule?
**A.** The value was 219.1%.

**Q.** What about the “pain threshold raised in a rate of” value ([4]; at 45 min) of the same molecule?
**A.** The value was 177.6%.

**Q.** What about the “pain threshold raised in a rate of” value ([4]; at 60 min) of the same molecule?
**A.** Its value is 32.4%.

**Q.** What about the “pain threshold raised in a rate of” value ([4]; at 90 min) of the same molecule?
**A.** The value was 14.9%.
